Measurements published in the supplement of paper PMC10724198.
± gives the standard deviation of the averaged measurements.

system: Saccharomyces cerevisiae; assay: protein stability index of tFT-peptide fusion (C-terminal peptide) (PSI (0-1 scale)); higher = more stable (slower turnover); conditions: genetic background: das1 deletion; temperature: 30 C
Description: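 MPS profiling in S. cerevisiae of the yeast C-terminome library: the last 12 aa of each annotated ORF are fused to the C-terminus of a sfGFP-mCherry timer, after a GGGS linker. Cells are FACS-sorted into 8 mCherry/sfGFP bins and deep-sequenced. PSI runs from 0 (unstable) to 1 (stable); wild type and das1Δ backgrounds, two technical replicates each.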

Sequence	protein stability index
LSFVLASLNANK [FUN14 C-terminal 12 aa]	0.678 ± 0.021
LSIGQKLTTPLC [SYC1 C-terminal 12 aa]	0.651 ± 0.015
LSLIYSPHLYMS [YJL136W-A C-terminal 12 aa]	0.643 ± 0.013
LSNIITLCRIIV [PEX34 C-terminal 12 aa]	0.465 ± 0.0065
LSQLVKKKPRRH [HIF1 C-terminal 12 aa]	0.6885 ± 0.0039
LSVKWAVNTLMS [SRP101 C-terminal 12 aa]	0.671 ± 0.014
LTSMSARIAFDN [AAD14 C-terminal 12 aa]	0.7219 ± 0.0034
LVASNFFYAETK [TFS1 C-terminal 12 aa]	0.7066 ± 0.00069
LVPEEEEETKDR [GRX5 C-terminal 12 aa]	0.7214 ± 0.0068
LYAFHQVGIHFS [DIM1 C-terminal 12 aa]	0.709 ± 0.032
LYELKGLLGNDS [INP2 C-terminal 12 aa]	0.681 ± 0.021
LYHKDADTIFHA [IRC11 C-terminal 12 aa]	0.708 ± 0.014
LYPLFEAVPFRR [YBL096C C-terminal 12 aa]	0.729 ± 0.014
LYSFNQLEPLQT [GIC2 C-terminal 12 aa]	0.703 ± 0.0092
MDDEFVSGRFEI [SCH9 C-terminal 12 aa]	0.717 ± 0.025
MDETIAPLVGCL [YEL008W C-terminal 12 aa]	0.724 ± 0.012
MDLEKDRYYDLS [DAS2 C-terminal 12 aa]	0.6908 ± 0.0068
MHQYSAIIPSGT [YJL182C C-terminal 12 aa]	0.642 ± 0.019
MITCLTAALKLN [AVT6 C-terminal 12 aa]	0.6868 ± 0.0041
MLQYLVFVYIEK [YCR085W C-terminal 12 aa]	0.182 ± 0.0095
MTDFSSSIIKGK [YCR090C C-terminal 12 aa]	0.713 ± 0.031

Sequence	protein stability index
MVKIRTKNDAKN [TAF2 C-terminal 12 aa]	0.7067 ± 0.0054
MVTSIRSTPNYI [MED6 C-terminal 12 aa]	0.694 ± 0.021
NAILNGGSVSGL [YAR066W C-terminal 12 aa]	0.677 ± 0.0079
NASYTKKYVPHP [YPR059C C-terminal 12 aa]	0.682 ± 0.0097
NATYNDSESSLN [SPO13 C-terminal 12 aa]	0.727 ± 0.016
NDINNSRPITRK [ARO80 C-terminal 12 aa]	0.682 ± 0.045
NEDWPNESKPLV [GOR1 C-terminal 12 aa]	0.711 ± 0.0072
NEELEKLRPPIT [SIP3 C-terminal 12 aa]	0.7001 ± 0.0018
NEIATKLEETKL [TYS1 C-terminal 12 aa]	0.694 ± 0.037
NESLSTILLYII [YKR033C C-terminal 12 aa]	0.644 ± 0.008
NFFESYRTISCL [YPL038W-A C-terminal 12 aa]	0.6408 ± 0.0042
NFGVSSSFSFKP [PEX3 C-terminal 12 aa]	0.7032 ± 0.003
NFVMTVFWKIPV [PER33 C-terminal 12 aa]	0.5008 ± 0.0016
NGANIFITSALT [YGL176C C-terminal 12 aa]	0.691 ± 0.004
NGLKYHRGHSTH [SFP1 C-terminal 12 aa]	0.703 ± 0.029
NIFYQLLLTVNY [YBR013C C-terminal 12 aa]	0.229 ± 0.0065
NIGSPLGAPKKK [MBF1 C-terminal 12 aa]	0.696 ± 0.031
NIHQTDYIYARL [BUD16 C-terminal 12 aa]	0.798 ± 0.031
NILKVEKRAVLE [PMT1 C-terminal 12 aa]	0.684 ± 0.013
NKEYWMKHKKPQ [PDE2 C-terminal 12 aa]	0.688 ± 0.0074
NKRDKRPANFTR [TSC11 C-terminal 12 aa]	0.7063 ± 0.0042

Sequence	protein stability index
NKVEENLEGLYL [RPT2 C-terminal 12 aa]	0.6934 ± 0.0063
NLSEAIHDNNGS [NNK1 C-terminal 12 aa]	0.717 ± 0.019
NNVPPIHPSLLH [NGR1 C-terminal 12 aa]	0.7115 ± 0.0066
NPSILGDFTRED [RTR1 C-terminal 12 aa]	0.663 ± 0.015
NRHSYCFSNLAP [YOL085W-A C-terminal 12 aa]	0.739 ± 0.0025
NRIVSLKDATSK [GLN4 C-terminal 12 aa]	0.689 ± 0.021
NSFELNDFFITS [HAC1 C-terminal 12 aa]	0.7145 ± 0.0011
NSLIFDAFNQIR [CDH1 C-terminal 12 aa]	0.732 ± 0.029
NTSRIAKFFNRR [SEC15 C-terminal 12 aa]	0.702 ± 0.031
NYAPHLSDATTS [MAC1 C-terminal 12 aa]	0.694 ± 0.013
PAAKGKNLSFKR [RRP6 C-terminal 12 aa]	0.7188 ± 0.0035
PADIDKYIIQRK [FMP46 C-terminal 12 aa]	0.7015 ± 0.0048
PEDCKDDKYFVN [LCB2 C-terminal 12 aa]	0.6832 ± 0.0068
PFKERAVFLLVL [YDR524W-C C-terminal 12 aa]	0.523 ± 0.016
PGVDVEVVVASN [RPS20 C-terminal 12 aa]	0.669 ± 0.0061
PIAAIKEILDQV [DSF1 C-terminal 12 aa]	0.666 ± 0.0092
PIIKEILQEYES [DNA2 C-terminal 12 aa]	0.6914 ± 0.0039
PIKLKSDEEMII [YFL040W C-terminal 12 aa]	0.707 ± 0.025
PILCTSEDFMGW [RGP1 C-terminal 12 aa]	0.709 ± 0.0088
PKWTDCEGDLTT [DET1 C-terminal 12 aa]	0.712 ± 0.011
PLKDLDPNAFRG [YOX1 C-terminal 12 aa]	0.6861 ± 0.006

Sequence	protein stability index
PLNDQVCPNSPL [YLR154W-F C-terminal 12 aa]	0.7273 ± 0.0053
PLYSMVAGENSL [SPO23 C-terminal 12 aa]	0.678 ± 0.021
PMIENLRFPNAR [YEH2 C-terminal 12 aa]	0.688 ± 0.023
PMIKRQCEIIQF [TIP41 C-terminal 12 aa]	0.645 ± 0.029
PPAGIPPPPPLP [PAN1 C-terminal 12 aa]	0.719 ± 0.0093
PPSDPSSIKIRN [KIN28 C-terminal 12 aa]	0.71109 ± 0.00022
PQENHDNKEEQS [HEK2 C-terminal 12 aa]	0.676 ± 0.019
PQGAGRGRGMPM [CCT7 C-terminal 12 aa]	0.69 ± 0.0089
PQMDDHTVISEI [MLO127 C-terminal 12 aa]	0.745 ± 0.029
PRDEQDSRKRNR [IBD2 C-terminal 12 aa]	0.699 ± 0.0085
PREILLRLMNDK [PRP6 C-terminal 12 aa]	0.726 ± 0.024
PRRSDLRPEFAE [VMA9 C-terminal 12 aa]	0.672 ± 0.022
PSAYVLFYERIF [UBP5 C-terminal 12 aa]	0.71 ± 0.015
PSFSNSQWRIIF [YOR169C C-terminal 12 aa]	0.714 ± 0.021
PSYAVCDNILVT [YOL013W-B C-terminal 12 aa]	0.67 ± 0.04
PTFLIPLRLCFV [EMA19 C-terminal 12 aa]	0.329 ± 0.02
PTPPTPPTPPQQ [ECM19 C-terminal 12 aa]	0.701 ± 0.014
PTTRPYIYEPRK [ELA1 C-terminal 12 aa]	0.696 ± 0.011
PTWQIVEDIRNT [PMT3 C-terminal 12 aa]	0.728 ± 0.025
